Experimental data: the supplement of paper PMC10724198
± gives the standard deviation of the averaged measurements.

Key:
Saccharomyces cerevisiae [1] = assay: protein stability index of tFT-peptide fusion (C-terminal peptide) (PSI (0-1 scale)); higher = more stable (slower turnover)
Description: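 MPS profiling in S. cerevisiae of the tFT-X12 degron library: putative degron peptides plus stable controls, 12 aa, fused to the C-terminus of a sfGFP-mCherry timer. Cells are FACS-sorted into 8 mCherry/sfGFP bins and deep-sequenced. PSI runs from 0 (unstable) to 1 (stable). Backgrounds are wild type, das1Δ and doa10Δ at 30 °C, and wild type, das1Δ, cdc34-1 and cdc53-1 at 37 °C; 2-3 technical replicates each.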

Saccharomyces cerevisiae [2] = assay: as above; conditions: genetic background: wild type; temperature: 30 C
[3] = genetic background: cdc34-1, temperature: 37 C
[4] = genetic background: cdc53-1, temperature: 37 C
[5] = genetic background: das1 deletion, temperature: 30 C
[6] = genetic background: das1 deletion, temperature: 37 C
[7] = genetic background: doa10 deletion, temperature: 30 C
[8] = genetic background: wild type, temperature: 30 C
[9] = genetic background: wild type, temperature: 37 C
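Further: PSI is a weighted mean of sequencing reads over stability bins, variants kept only with over 10 reads, mCherry proximal and sfGFP distal, peptide attached via GGGS linker.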

| Sequence | protein stability index (Saccharomyces cerevisiae [1]; [3]) | protein stability index (Saccharomyces cerevisiae [1]; [4]) | protein stability index (Saccharomyces cerevisiae [1]; [5]) | protein stability index (Saccharomyces cerevisiae [1]; [6]) | protein stability index (Saccharomyces cerevisiae [1]; [7]) | protein stability index (Saccharomyces cerevisiae [1]; [8]) | protein stability index (Saccharomyces cerevisiae [1]; [9]) | protein stability index (Saccharomyces cerevisiae [2]) |
| --- | --- | --- | --- | --- | --- | --- | --- | --- |
| IWYGLFWLRFWV | 0.513 ± 0.044 | 0.572 ± 0.018 | 0.497 ± 0.018 | 0.586 ± 0.015 | 0.444 ± 0.018 | 0.423 ± 0.023 | 0.5368 ± 0.0047 | 0.51 ± 0.055 |
| IYNIIFKYRTIT | 0.525 ± 0.036 | 0.581 ± 0.014 | 0.575 ± 0.0086 | 0.661 ± 0.073 | 0.0671 ± 0.0022 | 0.0987 ± 0.019 | 0.118 ± 0.016 | 0.127 ± 0.084 |
| KCWSGTVMVRLG | 0.675 ± 0.062 | 0.72 ± 0.017 | 0.596 ± 0.013 | 0.723 ± 0.032 | 0.164 ± 0.0099 | 0.191 ± 0.036 | 0.4516 ± 0.0042 | 0.34 ± 0.0068 |
| KERHRNKRKQIA | 0.659 ± 0.011 | 0.741 ± 0.021 | 0.66 ± 0.022 | 0.7046 ± 0.004 | 0.173 ± 0.0077 | 0.205 ± 0.035 | 0.43 ± 0.046 | 0.342 ± 0.038 |
| KERNKISQRKLT | 0.65 ± 0.009 | 0.654 ± 0.034 | 0.666 ± 0.015 | 0.714 ± 0.028 | 0.143 ± 0.023 | 0.185 ± 0.018 | 0.416 ± 0.013 | 0.434 ± 0.024 |
| KFKRLTKFYARQ | 0.555 ± 0.031 | 0.684 ± 0.029 | 0.676 ± 0.032 | 0.618 ± 0.011 | 0.108 ± 0.0012 | 0.132 ± 0.027 | 0.334 ± 0.017 | 0.311 ± 0.0089 |
| KHKIIGKYQRQI | 0.704 ± 0.13 | 0.751 ± 0.02 | 0.629 ± 0.033 | 0.7236 ± 0.0012 | 0.319 ± 0.017 | 0.338 ± 0.017 | 0.576 ± 0.015 | 0.46 ± 0.021 |
| KIIKERIRRIKI | 0.653 ± 0.013 | 0.632 ± 0.1 | 0.591 ± 0.032 | 0.71254 ± 0.0005 | 0.153 ± 0.0034 | 0.181 ± 0.049 | 0.286 ± 0.076 | 0.243 ± 0.032 |
| KIRGYLMPLTLL | 0.56 ± 0.037 | 0.6 ± 0.0051 | 0.557 ± 0.027 | 0.709 ± 0.014 | 0.4659 ± 0.0027 | 0.432 ± 0.0072 | 0.548 ± 0.028 | 0.503 ± 0.037 |
| KKKKNIKIKKQI | 0.74 ± 0.17 |  | 0.646 ± 0.034 | 0.711 ± 0.084 | 0.184 ± 0.025 | 0.215 ± 0.023 | 0.336 ± 0.12 | 0.276 ± 0.054 |
| KLKTSHILIKQT | 0.665 ± 0.059 | 0.729 ± 0.0099 | 0.606 ± 0.029 | 0.716 ± 0.024 | 0.1562 ± 0.0013 | 0.223 ± 0.033 | 0.452 ± 0.011 | 0.3668 ± 0.0036 |
| KLSLRYLLVSLI | 0.513 ± 0.013 | 0.602 ± 0.045 | 0.456 ± 0.018 | 0.606 ± 0.011 | 0.101 ± 0.0044 | 0.115 ± 0.025 | 0.153 ± 0.012 | 0.188 ± 0.049 |
| KMIVWKESIKRE | 0.689 ± 0.065 | 0.7388 ± 0.001 | 0.633 ± 0.029 | 0.723 ± 0.015 | 0.63 ± 0.014 | 0.667 ± 0.069 | 0.693 ± 0.022 | 0.535 ± 0.15 |
| KNGNVEILIKCT | 0.625 ± 0.081 | 0.6278 ± 0.0034 | 0.485 ± 0.018 | 0.631 ± 0.0084 | 0.377 ± 0.022 | 0.425 ± 0.034 | 0.58 ± 0.018 | 0.4881 ± 0.0027 |
| KRNLLYNIIVWI | 0.404 ± 0.024 | 0.476 ± 0.051 | 0.357 ± 0.025 | 0.524 ± 0.021 | 0.171 ± 0.0049 | 0.179 ± 0.016 | 0.288 ± 0.0061 | 0.299 ± 0.046 |
| KTSVLLCVSTSF | 0.633 ± 0.0073 | 0.645 ± 0.021 | 0.427 ± 0.018 | 0.628 ± 0.015 | 0.442 ± 0.046 | 0.443 ± 0.016 | 0.628 ± 0.015 | 0.441 ± 0.019 |
| LAINVRRELLFF | 0.613 ± 0.0093 | 0.723 ± 0.021 | 0.643 ± 0.029 | 0.7665 ± 0.007 | 0.134 ± 0.001 | 0.148 ± 0.032 | 0.235 ± 0.007 | 0.235 ± 0.043 |
| LARRASCFWVRC | 0.671 ± 0.015 | 0.721 ± 0.011 | 0.633 ± 0.026 | 0.71798 ± 0.00063 | 0.251 ± 0.019 | 0.303 ± 0.017 | 0.559 ± 0.011 | 0.452 ± 0.0072 |
| LAVVCIHAVSSF | 0.51 ± 0.042 | 0.538 ± 0.069 | 0.352 ± 0.018 | 0.533 ± 0.0038 | 0.333 ± 0.02 | 0.373 ± 0.042 | 0.518 ± 0.038 | 0.418 ± 0.077 |
| LCAFLKLFILII | 0.0906 ± 0.018 | 0.141 ± 0.076 | 0.181 ± 0.051 | 0.325 ± 0.017 | 0.235 ± 0.027 | 0.141 ± 0.045 | 0.23 ± 0.034 | 0.239 ± 0.016 |
